From article PMC6462090

Columns and labels:
[1] = target: USP9X catalytic domain C1727A (human) (UniProt Q93008)
[2] = target: USP9X catalytic domain H1729A (human) (UniProt Q93008)

Km for hydrolysis of Ub-AMC, fold increase against WT [1]: 5 fold
Km for hydrolysis of Ub-AMC, fold increase against WT [2]: 7 fold
Substance: Ub-AMC (from UniProt P0CG48 1-76)
